In the DeepSol protein solubility set:

Experiment: soluble on expression in E. coli; label from the status in PepcDB or PDB records

Row | Sequence | soluble on expression in E. coli
1 | MAHHHHHHMSLPPRGPSSPPAKCPQECVASSCVSLPITPPCIARRVLPLFPPPGWHMYDAYRNCFQYRPDVQRKLVKAVQRERHLRHLAAPHAGDAATSSAEVSAAVLRKEVMEMDSTCCCCALDAAHLFATPEDMPTPPLPLSRCELHEVLLALSPRWQSYPWRLCFDTASDGFSLSSLYRCMEAVDAKQSQVKTVAFGLFFVHSREDAALTNAQTASPVDSLSASSTSPSYALWPPTAGAPHSFCEAHHSSSRRYGAAHGALQHSVLGCFTPEVPCLGRHAANIYFGSTDTFVFRLDQLSCAPSRGAWMATDVEKKQSSQRAQQQEQQQQHGKAAEPHTCAPATSTRAVGAAPAYGYAKLALADDDIAGVPVPMPSRVTIEHAGDSKHAVDKSMVHSSPLLPPSEVPPLLNPSPLRAAVVSSSNAAAMSSVHGAPDIVVPSPRGRWHRLLRPVQPARVVPHAPLLEKFTWCGNMHNRKFIVCNPHFFAIGGGQSGAALYVDEALQYGTSSTWCETFNAPCLFGPRMGSADVSSVPSLVQSYMSGNDSPSGGPARPTSGLPHVEFAISRVVWFSVTEDKRTLRMMSAADASLPSAEAHRCGCGRFSCASASHTTTLDPMSTEKSTAPSPPPASTFLHQCDLLPFAAPM | not soluble
2 | MPSSTSSSLENLSVSVCAAGDSAAYQRNSVFGDDVVIVAAYRSPLCKAKRGGLKDTYPDDILAPVLKALIEKTNINPAEVGDIVVGSVLGAGSQRASECRMAAFYAGFPETVPVRTVNRQCSSGLQAVADVAAAIKAGFYDIGIGAGLESMTANPMAWEGSVNPKVKTMAQAQDCLLPMGITSENVAQKFSITRQEQDQAAVGSHRKTAAATAAGRFKDEIIPIKTKIVDPKTGDEKPVTISVDDGIRPGTSLADLAKLKPVFRKDGSTTAGTSSQVSDGAGAVLLMKRSIALQKGLPILGVFRTFAAVGVPPSIMGIGPAVAIPAAVKAAGLQIDDIDLFEINEAFASQFVYCQKKLEIDPQKINVNGGAMAIGHPLGATGARCVATLLHEMKRRGRDCRFGVVSMCIGTGMGAAAVFERGDACDELCNAKAKHHHHHH | soluble
3 | MGSDKIHHHHHHMATYNYPEFGAGLWHFANYIDRYAVDGYGPALSTIDQINAAKEVGELSYVDLPYPFTPGVTLSEVKDALKDAGLKAIGITPEIYLQKWSRGAFTNPDPAARAAAFELMHESAGIVRELGANYVKVWPGQDGWDYPFQVSHKNLWKLAVDGMRDLAGANPDVKFAIEYKPREPRVKMTWDSAARTLLGIEDIGLDNVGVLLDFGHALYGGESPADSAQLIIDRGRLFGMDVNDNLRGWDDDLVVGTVHMTEIFEFFYVLKINNWQGVWQLDQFPFRENHVEAAQLSIRFLKHIYRALDKLDIPALQAAQEAQNPLQAQRIVQDALLSSITVSE | not soluble
4 | MGSDKIHHHHHHMTVLIVTFSNDNESIPLVIKEIEARGEKAFRFDTDRYPTEVKLDIYCGDTERVIITDGEQKLDLSEVSSVWYRRMRYGQKIPDSMDKQYRDASIQECRVTVRGMIASLPGFHFDQMANVDRANNKQLQLKVAKEVGLLTPRTLTSNNPEAVKKFAQDCPQGIITKMLSSFAIYDDQGRENVVFTTPITNDDLENMEGLCFCPMTFQENIPKALELRTTIVGHHVFTAAVDSQSLQGSTYDWRKEGKNLAKNWQPYNLPEDIEKKLLKLMANFGLKYGAIDIIVTPDGRHVFLEVNPVGEFFWMEIYPPYYPISQAIAEILLTHKS | not soluble
5 | MRVYRVKGEVLVAVCDSDIVGKTFREGDLKIEVKESFYGSEEVGEEEVKRALRNATIANITGKKAVELAARIGIIDRNRVLYIGGCPHAQMVVM | not soluble
6 | PSPGGQMHAGISSFQQSNSSGTYGPQMSQYGPQGNYSRPPAYSGVPSASYSGPGPGMGISANNQMHGQGPSQPCGAVPLGRMPSAGMQNRPFPGNMSSMTPSSPGMSQQGGPGMGPPMPTVNRKAQEAAAAVMQAAANSAQSRQGSFPGMNQSGLMASSSPYSQPMNNSSSLMNTQAPPYSMAPAMVNSSAASVGLADMMSPGESKLPLPLKADGKEEGTPQPESKSKDSYSSQGISQPPTPGNLPVPSPMSPSSASISSFHGDESDSISSPGWPKTPSSPKSSSSTTTGEKITKVYELGNEPERKLWVDRYLTFMEERGSPVSSLPAVGKKPLDLFRLYVCVKEIGGLAQVNKNKKWRELATNLNVGTSSSAASSLKKQYIQYLFAFECKIERGEEPPPEVFSTGDTKKQPKLQPPSPANSGSLQGPQTPQSTGSNSMAEVPGDLKPPTPASTPHGQMTPMQGGRSSTISVHDPFSDVSDSSFPKRNSMTPNAPYQQGMSMPDVMGRMPYEPNKDPFGGMRKVPGSSEPFMTQGQMPNSSMQDMYNQSPSGAMSNLGMGQRQQFPYGASYDRRHEPYGQQYPGQGPPSGQPPYGGHQPGLYPQQPNYKRHMDGMYGPPAKRHEGDMYNMQYSSQQQEMYNQYGGSYSGPDRRPIQGQYPYPYSRERMQGPGQIQTHGIPLQMMGGPLQSSSSEGPQQNMWAARNDMPYPYQNRQGPGGPTQAPPYPGMNRTDDMMVPDQRINHESQWPSHVSQRQPYMSSSASMQPITRPPQPSYQTPPSLPNHISRAPSPASFQRSLENRMSPSKSPFLPSMKMQKVMPTVPTSQVTGPPPQPPPIRREITFPPGSVEASQPVLKQRRKITSKDIVTPEAWRVMMSLKSGLLAESTWALDTINILLYDDSTVATFNLSQLSGFLELLVEYFRKCLIDIFGILMEYEVGDPSQKALDHNAARKDDSQSLADDSGKEEEDAECIDDDEEDEEDEEEDSEKTESDEKSSIALTAPDAAADPKEKPKQASKFDKLPIKIVKKNNLFVVDRSDKLGRVQEFNSGLLHWQLGGGDTTEHIQTHFESKMEIPPRRRPPPPLSSAGRKKEQEGKGDSEEQQEKSIIATIDDVLSARPGALPEDANPGPQTESSKFPFGIQQAKSHRNIKLLEDEPRSRDETPLCTIAHWQDSLAKRCICVSNIVRSLSFVPGNDAEMSKHPGLVLILGKLILLHHEHPERKRAPQTYEKEEDEDKGVACSKDEWWWDCLEVLRDNTLVTLANISGQLDLSAYTESICLPILDGLLHWMVCPSAEAQDPFPTVGPNSVLSPQRLVLETLCKLSIQDNNVDLILATPPFSRQEKFYATLVRYVGDRKNPVCREMSMALLSNLAQGDALAARAIAVQKGSIGNLISFLEDGVTMAQYQQSQHNLMHMQPPPLEPPSVDMMCRAAKALLAMARVDENRSEFLLHEGRLLDISISAVLNSLVASVICDVLFQIGQL | soluble
7 | MAHHHHHHMASLTVPAHVPSAAEDCEQLRSAFKGWGTNEKLIISILAHRTAAQRKLIRQTYAETFGEDLLKELDRELTHDFEKLVLVWTLDPSERDAHLAKEATKRWTKSNFVLVELACTRSPKELVLAREAYHARYKKSLEEDVAYHTTGDHRKLLVPLVSSYRYGGEEVDLRLAKAESKILHEKISDKAYSDDEVIRILATRSKAQLNATLNHYKDEHGEDILKQLEDGDEFVALLRATIKGLVYPEHYFVEVLRDAINRRGTEEDHLTRVIATRAEVDLKIIADEYQKRDSIPLGRAIAKDTRGDYESMLLALLGQEED | soluble
8 | MGHHHHHHSHMPSLSTLRMRRCPSSLWIRFGYDPRKNPDAKIYQVLDFRIRCGMKHGYAPSDLPVKAKRSTYNYSLPITVKKTSSQLVTMHDLKQGLGPSGTSGARKPASSKYKLKVSLQTLRDSVYIFREGALPPYRQMFYQLCDLNVEELQKIIHRNDGAENSCTERDGWCLPKTSDELRDTMSLMIRQTIRSKRPALFSSSAKADGGKEQLTYESGEDEEDEEEEEEEEEDFKPSDGSENEMETEILDYV | not soluble
9 | MSLAYTKKKYTPKTKEQIKEETKEIMDKVLTDITKYYRSPEDMLELANFMAKFSNYSPKNMQLIRSQFENAYACANFKAFKDAGFHVNKGETAMKVFHPYVKEYVRDPRTKLAIPLGKLTEEQKKQVKNGELKVEKQTNYYLKATAFDISQTNAKPEDLPKIFPNRQFNFEINDENKELLKIGIQALAEKENIKIKTMGQGALVKELGNVHGAYVQVLDSSYSQIVMNPRNTETNELSVAIHELAHAKLHGNKIDPLEHTPTKEFEAELTSYIVCKHYGMDTSESAVPYIAQWTKNGQDIEEKDKSIMRVHETASSFINTIDKKISELQREGHHHHHH | soluble
10 | MSLSELGLGDPERPLDAVLHGFSISQSETIGRRTEMEDVTMIIKDFASYRRGRSSYRGAKCHESGHKEILLGIFDGHGGTECSSMVGDLFPVAFADALNSVLYAAQLNHAYDLPDSVWEPLFVGVFLRLDDTLRLKNIQSGSTAAICFILDNLVVSANCGDSRTVLTRDEAMIKSFGCDSMLYKVEGPTRSSRINEISSGSLLQLEQSQTAQLSGHAIINSARYFMNPEETSEEALVSAKRRGKRVEGLSLRLSKDHKPDDPTETRRIEASGGYVHGGRVMGTLSVCRSFGDFVYKPSISVVPFVSVYHFRTYDAWIVIACDGCWDSISDIDAAMLLSTCLSSQAGALKLRDEAYRLNSQDNISVITVRLYLEEGHHHHHH | soluble
11 | MAVLCGVCGIKEFKYKCPRCLVQTCSLECSKKHKTRDNCSGQTHDPKEYISSEALKQADDDKHERNAYVQRDYNYLTQLKRMVHVQKMDARMKNKRVLGPVGGHNSNFKKRRYDIDEDDRDSTECQRIIRRGVNCLMLPKGMQRSSQNRSKWDKTMDLFVWSVEWILCPMQEKGEKKELFKHVSHRIKETDFLVQGMGKNVFQKCCEFYRLAGTSSCIEGEDGSETKEERTQILQKSGLKFYTKTFPYNTTHIMDSKKLVELAIHEKCIGELLKNTTVIEFPTIFVAMTEADLPEGYEVLHQEPRPLEHTSTLNKFIDNAREEEDAEEDSQPTEEPVQKETQDASDSDSDSDDDYNPGLSMDFLTA | not soluble
12 | MGSDKIHHHHHHMFNSERLCIARERRGLTQRALAEAAGLTSKTISNYEKAGIFDAIASDSMERISAVLEYPIEFFLDRDVPSLTPEAVSFRAMTKLSAQKRDSALGAGKLAQELSAWIDGQFKLPKPNVPDSSFDGYSEPERAARTVREAWGIGELSISNIVHLLEANGIRVFSLAENCVEVDAFSFWMDEKPFVLLNTMKTPERSRFDAAHELGHLVLHKHSCNNGRQAEQDADRFASAFLMPERSILASVPRMPRLEQLILLKKNWKVSLAALVRRTFDVGLSTEWHYRQLSIELNRRGYRTGEPQGMPEREKSLILEKVFSALRTQGIKRTEILGQLRFPADEVSALTFNNRFFMEAITGDGPQSYIERKQPPQLSLVK | not soluble
13 | MTKLVLTPADTFFFKNHHATQAGETTVMESMFPPRPNTIYGALRAAYIYAYSSFDEFARGADERVKLWMGTPDERGAFRLHYCALADGDSLFLPLPLDYQVVEEGDSLKAYPLQLAKDRKPSSASTMWRLASSRREKTKSSQHRYVSLSEWKKALLLNQPIASLRTLSSFIVQEEKVGIQLDVSRRTAQEGFLYRVGKHRFLGDSSLVAYIDDGPDFSNVKWARIGGENRPWFIRQHPEEFRLWNDDEKRRIEQDIQRTKMAKIIFLSPAIFANGSRPAAMEGDRWTWPNGAVVTWLAAAIGRPELYGGWDIVRHRPKPRKWMIPAGSVIYVKIERDDDLRLVFSALDGIHLTDEGAEEGFGFAVLASVHESEEEL | not soluble
14 | STEESMYTRIIKELPREGSSDVLVIKNEHVKKSDIWPSGGEMVVKDLTVKYMDDGNAVLENISFSISPGQRVGLLGRTGSGKSTLLSAFLRMLNIKGDIEIDGVSWNSVTLQEWRKAFGVITQKVFIFSGTFRQNLDPNGKHKDEEINKVADEVGLKSVIEQFPGQLNFTLVDGGYVLSHGHKQLMCLARSVLSKAKIILLDEPSAHLDPITYQVIRRVLKQAFAGCTVILCEHRIEAMLDCQRFLVIEESNVWQYDSLQALLSEKSIFQQAISSSEKMRFFQGRHSSKHKPRTQITALKEETEEEVQETRL | soluble
15 | MGSDKIHHHHHHMIYRNWLGIIGVACILFVSCKPTEVDVPITYYSSFLLKDTTVMLSKVEMDPMQVNARCMVWDGDKRVLVRTSTTDSIYAVFAYPEMKFLSYTGSLSEYKQILAECNEGFYLVKDDSLYLYHLTDKDLLQKTTTHFLYNSNKIRLSKIKKLNDKMYTAHAYTDPSYNDIRLNEFYMLDAENNILYPKGHYPERTEVRFKTIFDFKFAYAHEVWPKPDGSRILVNYVRTRRFRIYDLSARLLHDVCLDYASNKYVVDADPKRWTTFIRDCFVTDKYIYLLCPEGEQSSLVIVDWEGRPIARYRLDEKIFFFFIDPDRNLFCGINSNNGQSFYFLDLDIN | not soluble
